Laboratory results published in article PMC8055535.

Biological target: light-dependent protochlorophyllide oxidoreductase (LPOR), Zea mays (Zea mays (endogenous in maize etioplasts))
Experiment: cryo-EM structure; electron cryo-tomography and subtomogram averaging of membrane tubes from ruptured maize etioplasts, native membranes; low-salt pH 8.0 buffer with 150 mM trehalose in place of sorbitol; tube averages at 18.2 and 18.1 Å, sub-boxes of dimers at 9 Å

light-dependent protochlorophyllide oxidoreductase (LPOR), Zea mays (enzyme)
stoichiometry N: 2
